Assay results from US20200157236A1 (CELLDEX THERAPEUTICS, published 2020).
Changes are numbered by the printed parent chain. Values belong to the binder of their own block, whether it stands above or below them.

Target: T1, purified ALK protein (BLitz, Table 20) (Homo sapiens (Human), UniProt Q9UM73 19-1038, limits assumed)
T1 construct: also called purified ALK proteins
Test: BLI (BLitz), mAb on Protein A tip, purified ALK in solution
Description: Kinetic measurements of the monovalent affinity of the 96 humanized ALK antibody variants (Ab351-Ab446) were collected. Affinity ranking was performed using a BLitz® System (ForteBio, Menlo Park, Calif.). Humanized anti-ALK antibodies were immobilized at 0.5 mg/mL using Protein A tips. Once baseline stability was ensured, purified ALK proteins at 70 μg/mL were added. The resulting kinetic data were fit to a single binding site equation, from which the quoted monovalent KD values were derived.

T1 sequence (Q9UM73 19-1038 limits assumed): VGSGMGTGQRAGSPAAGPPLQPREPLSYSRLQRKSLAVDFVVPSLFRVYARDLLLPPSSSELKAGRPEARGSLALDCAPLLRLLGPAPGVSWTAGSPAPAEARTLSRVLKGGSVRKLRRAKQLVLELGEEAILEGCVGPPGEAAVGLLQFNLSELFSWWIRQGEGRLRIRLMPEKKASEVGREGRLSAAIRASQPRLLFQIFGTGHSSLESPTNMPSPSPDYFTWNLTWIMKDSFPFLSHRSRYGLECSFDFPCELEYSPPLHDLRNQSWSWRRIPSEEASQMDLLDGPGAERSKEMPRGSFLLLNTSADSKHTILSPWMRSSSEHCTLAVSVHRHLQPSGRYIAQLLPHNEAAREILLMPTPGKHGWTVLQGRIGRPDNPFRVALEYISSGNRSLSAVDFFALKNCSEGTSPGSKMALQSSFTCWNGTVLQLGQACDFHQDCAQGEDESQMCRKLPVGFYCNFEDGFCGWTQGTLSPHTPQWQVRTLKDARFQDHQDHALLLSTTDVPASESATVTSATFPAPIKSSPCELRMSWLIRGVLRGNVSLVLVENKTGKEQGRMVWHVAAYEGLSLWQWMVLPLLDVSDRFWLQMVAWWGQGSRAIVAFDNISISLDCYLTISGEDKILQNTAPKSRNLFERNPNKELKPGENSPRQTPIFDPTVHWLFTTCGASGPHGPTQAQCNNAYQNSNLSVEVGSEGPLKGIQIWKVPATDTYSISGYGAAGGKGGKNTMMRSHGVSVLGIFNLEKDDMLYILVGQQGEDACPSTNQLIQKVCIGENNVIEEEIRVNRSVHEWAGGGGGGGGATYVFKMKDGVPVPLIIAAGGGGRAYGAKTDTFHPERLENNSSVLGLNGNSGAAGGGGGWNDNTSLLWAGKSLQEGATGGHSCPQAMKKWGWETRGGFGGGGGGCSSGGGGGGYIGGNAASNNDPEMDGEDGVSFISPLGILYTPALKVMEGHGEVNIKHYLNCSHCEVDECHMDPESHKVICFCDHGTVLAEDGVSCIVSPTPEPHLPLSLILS

B1: Ab384 (antibody, V domains shown)
VH: EVQLVQSGAEVKKPGSSVKLSCKASGYTFTSYWMHWVRQAPGQGLEWIGYIKPSSGYTKYNQKFKDKATLTADKSTSTAYMELSSLRSEDTAVYYCARDYYGSSSWFAYWGQGTLVTVSS
VL: EIVMTQSPAFMSVTVGEKVTITCKASQNVGTNVAWYQQKPDQSPKALIYSASYRYSGVPSRFSGSGSGTDFTLTISSLEAEDAATYYCQQYNSYPYMYTFGQGTKLEIK
notes: humanized
- Kd: 201 nM

B2: Ab351 (antibody, V domains shown)
VH: B1 VH with E1Q, K12A, S16T, R38K, A68V
VL: B1 VL with M11L, V15P, S43A
notes: humanized
- Kd: 120 nM

B3: Ab360 (antibody, V domains shown)
VH: B1 VH
VL: B1 VL with M11L, V15P, S43A
notes: humanized
- Kd: 137 nM

B4: Ab356 (antibody, V domains shown)
VH: B1 VH with S16A, S84R, E89D
VL: B1 VL with M11L, V15P, S43A
notes: humanized
- Kd: 128 nM

B6: Ab361 (antibody, V domains shown)
VH: B1 VH with L20V, T30S
VL: B1 VL with M11L, V15P, S43A
notes: humanized
- Kd: 153 nM

B7: Ab364 (antibody, V domains shown)
VH: B1 VH with A9P, S16T, P41R, G44R, K67R
VL: B1 VL with E1D, P8Q, S43A
notes: humanized
- Kd: 128 nM

B8: Ab359 (antibody, V domains shown)
VH: B1 VH with E1Q, K12A, R38K
VL: B1 VL with M11L, V15P, S43A
notes: humanized
- Kd: 100 nM

B11: Ab371 (antibody, V domains shown)
VH: B1 VH with E1Q, K12A, R38K
VL: B1 VL with E1D, P8Q, S43A
notes: humanized
- Kd: 130 nM

B12: Ab367 (antibody, V domains shown)
VH: B1 VH with E1Q, K12A, S16A, R38K, S84R, E89D
VL: B1 VL with E1D, P8Q, S43A
notes: humanized
- Kd: 114 nM

B13: Ab368 (antibody, V domains shown)
VH: B1 VH with S16A, S84R, E89D
VL: B1 VL with E1D, P8Q, S43A
notes: humanized
- Kd: 198 nM

B14: Ab358 (antibody, V domains shown)
VH: B1 VH with S16A, N61A, F64L, K65Q, D66G, K67R, A68V, S84R, E89D
VL: B1 VL with M11L, V15P, S43A
notes: humanized
- Kd: 118 nM

B16: Ab362 (antibody, V domains shown)
VH: B1 VH with T30S, R38K, N61A, K65Q, D66G, K67R, A68V
VL: B1 VL with M11L, V15P, S43A
notes: humanized
- Kd: 149 nM

B17: Ab369 (antibody, V domains shown)
VH: B1 VH with K12A, S16A, S84R, E89D
VL: B1 VL with E1D, P8Q, S43A
notes: humanized
- Kd: 210 nM

B18: Ab366 (antibody, V domains shown)
VH: B1 VH with S16T, P41R, G44R, N61A, K65Q, D66E, K67R, A68V
VL: B1 VL with E1D, P8Q, S43A
notes: humanized
- Kd: 219 nM

B21: Ab357 (antibody, V domains shown)
VH: B1 VH with K12A, S16A, S84R, E89D
VL: B1 VL with M11L, V15P, S43A
notes: humanized
- Kd: 147 nM

B23: Ab370 (antibody, V domains shown)
VH: B1 VH with S16A, N61A, F64L, K65Q, D66G, K67R, A68V, S84R, E89D
VL: B1 VL with E1D, P8Q, S43A
notes: humanized
- Kd: 2530 nM

B24: Ab353 (antibody, V domains shown)
VH: B1 VH with S16T, Y32S, W33A, H35Q, R38K
VL: B1 VL with M11L, V15P, S43A
notes: humanized
- Kd: 384 nM

B27: Ab363 (antibody, V domains shown)
VH: B1 VH with E1Q, K12A, S16T, R38K, A68V
VL: B1 VL with E1D, P8Q, S43A
notes: humanized
- Kd: 119 nM

B29: Ab354 (antibody, V domains shown)
VH: B1 VH with S16T, P41R, G44R, N61A, K65Q, D66E, K67R, A68V
VL: B1 VL with M11L, V15P, S43A
notes: humanized
- Kd: 133 nM

B30: Ab365 (antibody, V domains shown)
VH: B1 VH with S16T, Y32S, W33A, H35Q, R38K
VL: B1 VL with E1D, P8Q, S43A
notes: humanized
- Kd: 1490 nM

Results, then the binder that gave them:

- Kd: 167 nM
B5: Ab378 (antibody, V domains shown)
VH: B1 VH with S16T, P41R, G44R, N61A, K65Q, D66E, K67R, A68V
VL: B1 VL
notes: humanized

- Kd: 140 nM
B9: Ab375 (antibody, V domains shown)
VH: B1 VH with E1Q, K12A, S16T, R38K, A68V
VL: B1 VL
notes: humanized

- Kd: 188 nM
B10: Ab372 (antibody, V domains shown)
VH: B1 VH
VL: B1 VL with E1D, P8Q, S43A
notes: humanized

- Kd: 118 nM
B15: Ab379 (antibody, V domains shown)
VH: B1 VH with E1Q, K12A, S16A, R38K, S84R, E89D
VL: B1 VL
notes: humanized

- Kd: 180 nM
B19: Ab381 (antibody, V domains shown)
VH: B1 VH with K12A, S16A, S84R, E89D
VL: B1 VL
notes: humanized

- Kd: 253 nM
B20: Ab374 (antibody, V domains shown)
VH: B1 VH with T30S, R38K, N61A, K65Q, D66G, K67R, A68V
VL: B1 VL with E1D, P8Q, S43A
notes: humanized

- Kd: 103 nM
B22: Ab376 (antibody, V domains shown)
VH: B1 VH with A9P, S16T, P41R, G44R, K67R
VL: B1 VL
notes: humanized

- Kd: 927 nM
B25: Ab377 (antibody, V domains shown)
VH: B1 VH with S16T, Y32S, W33A, H35Q, R38K
VL: B1 VL
notes: humanized

- Kd: 141 nM
B26: Ab380 (antibody, V domains shown)
VH: B1 VH with S16A, S84R, E89D
VL: B1 VL
notes: humanized

- Kd: 280 nM
B28: Ab373 (antibody, V domains shown)
VH: B1 VH with L20V, T30S
VL: B1 VL with E1D, P8Q, S43A
notes: humanized
